The values that follow come from a protein production outcome set (Wang et al. 2014).
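Note: failed if final PepcDB status was selected cloned or expressed and not failed if soluble or beyond.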

This data set can be described thus: label from the status in PepcDB records.
As for “MLSGMSGGMLFIVFAWLIGHAVLRIVPTAYKPVLMVRSRGIALALSAIPLLLAYQLYEVVRVVQSQFSLSFQEAASTVIIQHPVGQSWFVVFTVTVFLGVLLLFPEKRVTANLFFVGVLLLIVSVSWVSHGTALLGWQGFVLNTSHLLASAVWIGTLLMVGWGARPLTDGLKFHRWFSLMVVCAVAVLSVSGLLLMNVIVPEYVPSWALTYGQFLLMKHLLFLPLLLFGLRHLLWLRAEKPLSVVQRSIRIESVVGCVVFFLSAFMTRQTPPHEVAETMQVEPPAWSFLLFHPEGLSVFQQLTLSLTGWGIACLVLAMIGLAASVLSLRHKSLFVFTTSSLTASLFLYVGLMLSVTPVSILVDETRYPTVEAAIQATYEDKTSIDIVLEDETEETTTVIYTVNAHDFVIEKLGIDSETDDFYRLPAAMLTVGGTSVYDEPMKIRTFQVTDGQWKETGSNYTYVTFGMIQEPKETVRLQLHYEDGSYVTELTNGVFYHVYQSDVEMSQPVIDLLAEDGTKVDQFLPAGVEQGVYCH”, the protein production result was “failed”. With “MLSKIVDINAARQNIDMKVKLLSLNKRTIKNDRGETVYYYGIIGDETGTVPFTAWTFPPAVRVGDVIEIRSCYSNIYNGKIRIYIDGRSEVILKPDVEMEVKRSSDLVKIRDVSLSTPYVSVIGKITGIHKKEYESDGTTKSVYQGYIEDDTARIRISSFGKQLQDSDVVRIDNARVAQFNGYLSLSVGDSSRIESVNVNIPEKPRHIFISEIRSPVGGITIVGFVVSVGQGSRIFTKCSVCRRIVEDGTCKDHPKAPVYPDIFGYFSISDGTGTITCYINSDSFLPYAGISQDQFRRDAYSMNPNSLIKKNLLGKCISVSGDLRSQDDRIVMNVQSMKAISAEDNREIESIIEEEFQ” the entry was “failed”.

On to “MLSMVEVKIIKSDGFFNEVLISSDKKIHFDTAYAEGDFNCFGEGSIVSETTDDLKFKIANLIPGKYHFKIAIDQYKILREAENRSGSYSFSIWLEKPYHNPDYAQFCAIIDKKLMDVRIAVPKHSISVSIFTKDTLKPVYSRRASFDTFDAVEYVFDGMSDYYFEVDNSRLPKEGYFSPKVHIEHEGGSKIIYHIFPDRFFRVGPHLPTLSRWGDKPTFSSFFGGNLRGITEKIGYIKALNVDTIYLNPVYKSKSNHRYDVDDYFSIDGLLGGEQDFIELVNEAHENGIKIVADMVFNHTSTDFPYFLDALKNGKNSKYWNWYIFHGEGAAVFDGRAKGKTKPLYETFMGVGRMPKLNHKNAEVRKFCIDVMKYYKNKFGVDGFRYDVAHSIYPEFFLEAVKEFGNEMLHIGEAWCLPSMFMLSGYWNSFTNYYLRNAIIKFVREEINITEFYNMIQNMIISYGPLIQQNVMNILDSHDTERILRAFKGNKKKVKLAYSILFMFDGFATIYYGDEVGLDGGRDPDDRRCFPWDNMDEDMLQFLKKLGEIRRMYHTGSAGIITVEETQECKYITRLSGESIIKVAIAKKPVTLEGEIILSSCGEKTIYEGDFALSIAKYA”, for which the protein production result is listed as “failed”. For “MLSSVFQVLGGLALFLLAMEMMTNGLKNAAGHHLRHMLGHWTRTPLRALFAGFVITGIVQHSGAVTVATIGFVNAGLMTLAQSLGVVFGSNIGTTMTGWLVSLIGFGFKIEAMALPLLAAGVGFKLVSRNPRNQFLGEALAGFALFFLGLSILKTALESSALGFQNGHLINADYGLPAFMLIGLLATVLTQSSSAALAIVLTAAAGGLIPLDNAAAAVIGANLGSTSTAALSALKATANARRLATGHILFNLVTGVIALLVLPAMLWLVNTLTNLLDLEANPAVSLALFHTLFNVLGAAIMLPFTQPFARFLGRLFRSKEEDNAEPRYLDDTLVTTPELAIGAVDQEMKRLIGHSRGLLRVCLDRESLEESDVRPKADAVRNLNLAITDYIGRLRAEKMHPSVVDALTLSIRTCRYLAEATELTLHLVRLRALARRTDFETLESVFNRYFEVIRALVASETPVPEQLQEAETVYHQLKAATLQKMIRREFSSSLGAQVLDELSAVRRLTDQWSKALYWQDGVGLLNQSHDQASAS”, the protein production result was “failed”. Consider “MLSTEHFLLFASIVLFAGIMAGKVGYRFGIPTLLIFLFTGMLFGVDGFGFQFSNADVAQSVGIIALSIILFTGGMDTRIRKVRPVIAQGLTLSTLGVLLTALLSGFFIFWLSGSDFGPYPFALSTSLLLAATMASTDSASVFAILRSQKMQLKENLAPTLEMESGSNDPMAYMLTIALIDFITTGQSGIGSIVLTFILQFVVGGTLGFLMGRLAVFILNRMNIHNDTLYPITLLCMVFFTFSVTSLLQGNGYLAVYIAGIVVGNNRVIHKKSINTFLDGITWLVQIILFILLGLLVNPREMLDVAPFSLVVGAFMILIARPLAVYFCLIPFRKISFRGKTFLSWVGLRGAVPIIFATYPMIDNIPGADQLFNVVFFITILSLLVQGSTISQVARWLGLDIPSPPIGSLFGVEIPEETGTKLEERVVDASMLSHGDLLMNLSLRDEELVILVRRGEGYRVPKGRMHLQVGDVLLIVSEKNLSQTLTSGDPENHPGLLQRLKHRLLRR”, for which the protein production result was “failed”. Under “MLSTSRSRFIRNTNESGEEVTTFFDYDYGAPCHKFDVKQIGAQLLPPLYSLVFIFGFVGNMLVVLILINCKKLKCLTDIYLLNLAISDLLFLITLPLWAHSAANEWVFGNAMCKLFTGLYHIGYFGGIFFIILLTIDRYLAIVHAVFALKARTVTFGVVTSVITWLVAVFASVPGIIFTKCQKEDSVYVCGPYFPRGWNNFHTIMRNILGLVLPLLIMVICYSGILKTLLRCRNEKKRHRAVRVIFTIMIVYFLFWTPYNIVILLNTFQEFFGLSNCESTSQLDQATQVTETLGMTHCCINPIIYAFVGEKFRRYLSVFFRKHITKRFCKQCPVFYRETVDGVTSTNTPSTGEQEVSAGL” stands “failed”; under “MLSVRIPGPARQAWAIVEQRPWLARRPFIIHGPPWRLASQQEDDVFKLMSRSAVKMVERYLPDPYVFVVLLTLVAAGAAMIIEGQTPMAVVRWWGNGFWGLLTFAMQMLLVLVTGYMLASTPLVKRMLARLASLATSAGGAIILVSVVSLAASWINWGFGLVVGALFAKQIARQVRVDYRLLVASAYSGFIIWHGGLAGSIPLTIATEGHFSADKIGIIPTGDTIFAVFNLVIVVAMFILVPLVNRLMLPDEKESVYVDPARLEEASVPASDDDKRPAARLENSRLLAWLIAAGGLAYMFDYYVVRGAGLNLNVINFSFLILAILLHGTPRRLLTSLDEAIKGGAGIVIQFPFYAGIMAIMMDSGLAATLSEWFVSIASAATLPFWTFISAGIVNIFIPSGGGQWAVQSPIVISAAQALGADMPRVAMAVAWGDAWTNMLQPFWALPVLAIAGLKAKDIMGYCIIQLLVTGVIISVGLSFF”, “failed”. Under “MLTFAAAVLFLIITPGPGVMTTAGFGAAYGFRASLSYVVGLFIGTNLVMLAVMTGLAAVLLSVPGLRLVLLVLSVGYLLYLAALIALAGARVAFIEARSAPGVMRGVLLQAINPKAYAVNTSLITGFNYAPDAFLFEMFTKALILNAIWIPIHLAWLWAGAALHRLNLPHSTQRAINILMALSMLGVVALALWSASRVKA” stands “failed”; under “MLTFETLCQWHRAWLGNVYSWAGQSRTVDMSKPNIRFASPVQIPKLAEKFEARYLPRFAELPEMTDEELVAFLAEVHVEFILIHPFREGNGRISRLLLDVMAAKAGAEPLDYSLWDEHKDFYFKAIQAGRDGDYQHVERLIRDVLEAQQLEHHHHHH”, “failed”. Under “MLTGRRYLLAFTPEQEEFAEKIGDACRVVWNTALEQRRQYRRRGAFIGYVEQARQMAEAKKDFPWLAEAPSHTLQQTLRDLERACKTHGTFKVRWRSKRKNAPTFRFPDPKQITVERISRRWGRVKLPKLGWTRFRWTRPLGGQLRNATVLKDGGRWYISFCVEDGLMESAPNGKPPVGVDRGVTVAVATSSGWMRDREFVTPGEAVRLKRLQQQLARQRKGSNRRAATRAKLTKLNARIRARRTDFLAWTANRLTCDHGLVVVEDLNIRNMTASAKGTLAEPGRNVAAKAGLNRAILAKGWGGLLTALEHKARYHGSRILRVPPAFTSQTCHACGHCAPDNRESQAEFRCRACGHQANADVNAAKNILAAGLAVTGRGDLAVGRSVKRQPPKVEAA” stands “failed”; under “MLTKSVAVITSTIGRPELERAIQSVQQQTYPCQHYVFVDGVQFAEQAKQILDKYPQVIVTYLPMNTGANGWSNSSINAIAPFLAKEDMICYLDDDNWYEPNHVETCLTCLMQNQLDYVYSYRNLINSVNNHFICRDTFESVGPNKALKLDISSNMLNIAGSIQLHNENHIDTNTYFLTRKVALEASQYWYSGRSNDNNVSNWLLFSAYKGICTKTYSVNYLFDPTTFFNTFYQMICQNTPLNSSEQDKIAILEALIRAISDSQASD”, “failed”; under “MLTLAPCGRGPCAARGEGASRPVLTKSHSSSRLKPTSAGQHPGAGRGPLAWGMTEPVPVAPFPSVFGGVQQLRPDVFRVRLPLVNIFLMGVPGGDWVLVDTGMPGTAGLIRQAAAQVYGARAPQAIVLTHGHFDHIGALHALLAEWNVPVYAHPDELPHLTGEVPYRFPDPTVGGLMSLTSPLFLPGPYDFRPQVRTLPEDGTVPELPGWRWVHTPGHTEGHVSLWREADRLLIAGDAVVTTPQETVPGALASTPTVLRRPPAYYTPNWNATRDSVRTLAALRPALVATGHGHPLTDDSLGDALTRLADDFDHDPNGRPAHGWYLGHPAPMQKPRPGEPDPMRTLFLGALGAAGALWLLGRRRR”, “failed”.

For the sequence “MLTLVLASAQSPDLRGRGPDMEPRSSVAKSGVALGVLLLIGLPVAAQNSKVKTNYLSHIEPCNGVGATPLDVRIDACTAFIEASQGTTAALAIAYNNRGNAYTAKGDYDKAIRDFDQSIALKPTYAKAFNNRGVAYLRKGEYELAIEAFDDAIKLDPDYVAAFVNRAGAYLKKNDHQRAAHDYDEAIRLQPDSQAARSGRCWTRAVLGAWQAALEDCDRALQSGSTSAAVYDSRGLIHLKMGEFGAAIADYNSALRAAPELASALFGRGLAKLKQGDAIGGDSDISAAKTIQGNIGDEFAHYGVGRD”, the protein production result was “failed”.

For the sequence “MLTQEQIDGIYEDLEHPFHFLWFDIGDAHGVSSGETDPASFEERKKDFLFLVEKLLDEGKLKLGNRKTELIIDGTTAELVEMFRKSFPASDEEMLEGLWLVTEDCPFVAVWLFEGENGEDYYGWC”, the protein production result is listed as “failed”. With “MLTTFIVNSPILASIVFTLITIATYQFASACQQKWQYIWLNPMLFTISILVPFLLLIDINYQEYSQTTEILNLLLEPAIVALGMPLYQQFKQIRFYWREMTAILVLGITVVITVSFLLAMWLIKAPEIAIALSLKSVTTPIGITLTEQLFGDSSITAFAILIAGLFGALLGPQWLSFIGINSAKAQGLAIGSASHVIGTAVLVRKSAEHGAYSSVALILSAILTALISPWLIPLLQRLVT” the entry was “failed”; with “MLTTRLLISQRGRIAMKQVHLLTPVAGQLVPLESVHDPVFSQGMMGQGFGIEPTDGQVVAPISGKVTMVAASLHAIGFTGNNGLEVLVHLGIDTVELADRPPFKVNVQVGDTVEAGEKVAMMDLAAITSANKDTTVIMAVTNTADMVTKLTPELGEVRAGVVGAVVELKEHVAEASVVKGKGGKYDELATQIIAQVGGPVNVKSVIHCITRVRFYLKDEGQANDEAIRNLKGVIDVAKAGGQYQVVIGPAVTDVYDAIVGQLGAGFGDADASAVAMEKEANRLAWQKMTPWQKVKHGFSSLIGVITGSMIPVIGLLAASGILKGILSLLKNFNLVSATTPTYVIINAMGDSVFYFLPIFVGFTAAKKLGADPVIMGIIGGVLTYPAIVGMATTGKVTGHLLGMAINANFFGIPVHVASYTYSIFPMIAGAWLASKLEPWLKRVIPTVLRMIFVPLFEVVIISGAIIIILGPIITALSGALAAGIVAIYKLSPAISGLIIGGFYQVLVIFGLHWAIIPIVVNDITTTGHSYLNAIVSATMVAQGGAVLAIALKSKFANIKELAWPATISAFCGVTEPAMYGINLKYGRAFITASIGGAVGGFLTGLFNVNMWGFAGSLIGVTSFINPKGLDFSFYGFLIASAIDLIVAFTLTWMFGFSDNDVKNVKKAPEKKHLGQQVAN”, “failed”.
